In patent US12139520B2 (priority 2020, dated 2024):
Numbered stars: 1 amine (or outer) side, 2 acyl side, 3 side chain; on linkers, the order of the positions; unused ones are H or OH. Bridge positions count the residues as written; N and C are the ends. Square brackets hold non-standard residues; d marks the D form. Side chains are listed from the residue outwards. Ends that are not written are not given here. * marks the point of attachment. C20 diacid = O=C(O)CCCCCCCCCCCCCCCCCCC(=O)*; γGlu = O=C(O)[C@H](CCC(=O)[*:2])N[*:1]; Hyp = O=C(O)[C@@H]1C[C@@H](O)CN1; NMeI = CC[C@H](C)[C@H](NC)C(=O)O; Aad = N[C@@H](CCCC(=O)O)C(=O)O; AEEA = NCCOCCOCC(=O)O; Sar = CNCC(=O)O

T1: hAMY3R (human, UniProt P30988)
T1 sequence 1: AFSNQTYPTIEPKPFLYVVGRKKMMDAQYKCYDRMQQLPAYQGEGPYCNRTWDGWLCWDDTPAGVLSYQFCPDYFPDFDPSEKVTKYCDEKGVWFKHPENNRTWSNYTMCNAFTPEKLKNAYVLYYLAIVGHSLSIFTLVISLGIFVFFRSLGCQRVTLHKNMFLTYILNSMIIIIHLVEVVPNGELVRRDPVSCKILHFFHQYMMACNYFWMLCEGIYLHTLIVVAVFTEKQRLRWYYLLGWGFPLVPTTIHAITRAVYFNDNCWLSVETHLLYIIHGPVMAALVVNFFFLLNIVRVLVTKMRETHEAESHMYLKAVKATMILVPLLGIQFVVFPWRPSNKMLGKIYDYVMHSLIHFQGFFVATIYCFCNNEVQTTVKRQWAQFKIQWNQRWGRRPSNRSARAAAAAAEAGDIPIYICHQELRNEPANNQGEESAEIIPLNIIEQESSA
T1 sequence 2: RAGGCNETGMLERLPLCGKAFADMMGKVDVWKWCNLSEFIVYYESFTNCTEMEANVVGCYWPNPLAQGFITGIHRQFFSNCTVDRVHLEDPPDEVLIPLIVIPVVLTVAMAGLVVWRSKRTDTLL


molecular target: T1, hAMY3R; assay: cell-based or functional assay

Binder | hAMY3R EC50 (cAMP)
{C20 diacid-γGlu}-KCNTSTCTVQRLAHQIAQFTDKDKDPVAPPTNVGSNG[Hyp]-NH2 (disulfide 2-7 (inferred); not fully specified; ends not checked) [SEQ ID NO: 88] | 0.015 nM
{C20 diacid-γGlu}-KCNTATCTVQRLAHQIAQFTNKDKDNVAPPTNVGSNG[Hyp]-NH2 (disulfide 2-7 (inferred); not fully specified; ends not checked) [SEQ ID NO: 95] | 0.016 nM
{C20 diacid-γGlu}-KCNTATCTVQRLAHQIAQFTDKNKDNVAPPTNVGSNG[Hyp]-NH2 (disulfide 2-7 (inferred); not fully specified; ends not checked) [SEQ ID NO: 87] | 0.015 nM
{C20 diacid-γGlu}-KCNTATCTVARLAHQINQFTDKDKDNVAPPTNVGSNG[Hyp]-NH2 (disulfide 2-7 (inferred); not fully specified; ends not checked) [SEQ ID NO: 86] | 0.015 nM
KCNFATCTVQRLAHQIYQFTDKDKDNVAPPTEVGSNG[Hyp]-NH2 (disulfide 2-7 (inferred); ends not checked) [SEQ ID NO: 10] | 0.007 nM
{C20 diacid-γGlu}-KCNTATCTVQRLAHQIYQFTDKDKDNVAPRTKVGSNG[Hyp] (disulfide 2-7 (inferred); ends not checked) [SEQ ID NO: 99] | 0.017 nM
{C20 diacid-γGlu}-KCATATCTVQRLAEQIYQFTDKDKDNVAPPTNVGSNG[Hyp]-NH2 (disulfide 2-7 (inferred); not fully specified; ends not checked) [SEQ ID NO: 97] | 0.016 nM
{C20 diacid-γGlu}-KCNTATCTVQRLAHQIAQFTDKDKDPVAPPTNVGSNG[Hyp]-NH2 (disulfide 2-7 (inferred); not fully specified; ends not checked) [SEQ ID NO: 92] | 0.016 nM
{C20 diacid-γGlu}-RCGTATCATERLA[Aad]FLQRSSF[Sar]A[NMeI]LSSTEVGSNT[Hyp]-NH2 (disulfide 2-7 (inferred); not fully specified; ends not checked) [SEQ ID NO: 76] | 0.014 nM
{C20 diacid-γGlu}-KCNTATCTVQRLAEQIAQFTDKDKDNVAPPTNVGSNG[Hyp]-NH2 (disulfide 2-7 (inferred); not fully specified; ends not checked) [SEQ ID NO: 78] | 0.014 nM
{C20 diacid-γGlu}-KCNTATCTVQRLAHQIYQFTNKDKDNVAPPTNVGSNG[Hyp]-NH2 (disulfide 2-7 (inferred); not fully specified; ends not checked) [SEQ ID NO: 82] | 0.015 nM
{C20 diacid-γGlu}-RCQTATCATERLAHFLQRSSF[Sar]A[NMeI]LSSTEVGSNT[Hyp]-NH2 (disulfide 2-7 (inferred); not fully specified; ends not checked) [SEQ ID NO: 80] | 0.015 nM
GCRFGTCTVQRLAHQIYQFTDKDKDNVAPRTNVGPNG[Hyp]-NH2 (disulfide 2-7 (inferred); ends not checked) [SEQ ID NO: 90] | 0.016 nM
RCNASTCTVNRLADQITQFSNKDKAQVSPPTEVGPNS[Hyp]-NH2 (disulfide 2-7 (inferred); ends not checked) [SEQ ID NO: 9] | 0.006 nM
{C20 diacid-γGlu}-KCNTATCTVQRLAHQIYQFADKDKDNVAPPTNVGSNG[Hyp]-NH2 (disulfide 2-7 (inferred); not fully specified; ends not checked) [SEQ ID NO: 83] | 0.015 nM
GCRFGTCTVQRLAHQIYQFTDKDKDNVAPRTNIGPNG[Hyp]-NH2 (disulfide 2-7 (inferred); ends not checked) [SEQ ID NO: 81] | 0.015 nM
{C20 diacid-γGlu}-KCNTATCTVQRLAHQIYQFTDKNKDNVAPPTNVGSNG[Hyp]-NH2 (disulfide 2-7 (inferred); not fully specified; ends not checked) [SEQ ID NO: 91] | 0.016 nM
KCNTATCATQRLANFLVHSSNNFGAIAPSTKVGSNGY [SEQ ID NO: 93] | 0.016 nM
GCRTGTCTVQRLAHQIYQFTDKDKDNVAPRTNVGPNGY [SEQ ID NO: 84] | 0.015 nM
GCRFGTCTVQRLAHQIYQFTDKDKDNVAPRTNVSPNGY [SEQ ID NO: 98] | 0.017 nM
KCNTSTCTVARLADQITQFSNKDKAQVSPPTEVGPNS[Hyp]-NH2 (disulfide 2-7 (inferred); ends not checked) [SEQ ID NO: 8] | 0.006 nM
KCNTATCTVQRLAEQIYQFK([AEEA-AEEA-γGlu-C20 diacid])DKDKDNVAPPTNVGSNG[Hyp]-NH2 (disulfide 2-7 (inferred); not fully specified; ends not checked) [SEQ ID NO: 89] | 0.015 nM
{C20 diacid-γGlu}-KCNTATCTVQRLAHQIAQFSDKDKDNVAPPTNVGSNG[Hyp]-NH2 (disulfide 2-7 (inferred); not fully specified; ends not checked) [SEQ ID NO: 79] | 0.014 nM
{C20 diacid-γGlu}-KCNTATCTVQRLAHQIAQFYDKDKDNVAPPTNVGSNG[Hyp]-NH2 (disulfide 2-7 (inferred); not fully specified; ends not checked) [SEQ ID NO: 94] | 0.016 nM
{C20 diacid-γGlu}-KCNTATCTVQRLAHQIYQFTDKDKDNVAPPTNVGSNG[Hyp]-NH2 (disulfide 2-7 (inferred); not fully specified; ends not checked) [SEQ ID NO: 77] | 0.014 nM
{C20 diacid-γGlu}-KCNTATCTVQRLAHQIVQFTDKDKDNVAPPTNVGSNG[Hyp]-NH2 (disulfide 2-7 (inferred); not fully specified; ends not checked) [SEQ ID NO: 85] | 0.015 nM
{C20 diacid-γGlu}-KCNTATCTVQRLAEQIYQFTDKDKDNVAPPTNVGSNT[Hyp]-NH2 (disulfide 2-7 (inferred); not fully specified; ends not checked) [SEQ ID NO: 96] | 0.016 nM

molecular target: hAM1R (human, UniProt Q16602); assay: cell-based or functional assay

Binder | hAM1R EC50 (cAMP)
{C20 diacid-γGlu}-KCNTSTCTVQRLAHQIAQFTDKDKDPVAPPTNVGSNG[Hyp]-NH2 (disulfide 2-7 (inferred); not fully specified; ends not checked) [SEQ ID NO: 88] | > 5000 nM
{C20 diacid-γGlu}-KCNTATCTVQRLAHQIAQFTNKDKDNVAPPTNVGSNG[Hyp]-NH2 (disulfide 2-7 (inferred); not fully specified; ends not checked) [SEQ ID NO: 95] | > 5000 nM
{C20 diacid-γGlu}-KCNTATCTVQRLAHQIAQFTDKNKDNVAPPTNVGSNG[Hyp]-NH2 (disulfide 2-7 (inferred); not fully specified; ends not checked) [SEQ ID NO: 87] | > 5000 nM
{C20 diacid-γGlu}-KCNTATCTVARLAHQINQFTDKDKDNVAPPTNVGSNG[Hyp]-NH2 (disulfide 2-7 (inferred); not fully specified; ends not checked) [SEQ ID NO: 86] | > 5000 nM
KCNFATCTVQRLAHQIYQFTDKDKDNVAPPTEVGSNG[Hyp]-NH2 (disulfide 2-7 (inferred); ends not checked) [SEQ ID NO: 10] | 552 nM
{C20 diacid-γGlu}-KCNTATCTVQRLAHQIYQFTDKDKDNVAPRTKVGSNG[Hyp] (disulfide 2-7 (inferred); ends not checked) [SEQ ID NO: 99] | 364 nM
{C20 diacid-γGlu}-KCATATCTVQRLAEQIYQFTDKDKDNVAPPTNVGSNG[Hyp]-NH2 (disulfide 2-7 (inferred); not fully specified; ends not checked) [SEQ ID NO: 97] | > 5000 nM
{C20 diacid-γGlu}-KCNTATCTVQRLAHQIAQFTDKDKDPVAPPTNVGSNG[Hyp]-NH2 (disulfide 2-7 (inferred); not fully specified; ends not checked) [SEQ ID NO: 92] | 933 nM
{C20 diacid-γGlu}-RCGTATCATERLA[Aad]FLQRSSF[Sar]A[NMeI]LSSTEVGSNT[Hyp]-NH2 (disulfide 2-7 (inferred); not fully specified; ends not checked) [SEQ ID NO: 76] | > 5000 nM
{C20 diacid-γGlu}-KCNTATCTVQRLAEQIAQFTDKDKDNVAPPTNVGSNG[Hyp]-NH2 (disulfide 2-7 (inferred); not fully specified; ends not checked) [SEQ ID NO: 78] | > 5000 nM
{C20 diacid-γGlu}-KCNTATCTVQRLAHQIYQFTNKDKDNVAPPTNVGSNG[Hyp]-NH2 (disulfide 2-7 (inferred); not fully specified; ends not checked) [SEQ ID NO: 82] | 612 nM
{C20 diacid-γGlu}-RCQTATCATERLAHFLQRSSF[Sar]A[NMeI]LSSTEVGSNT[Hyp]-NH2 (disulfide 2-7 (inferred); not fully specified; ends not checked) [SEQ ID NO: 80] | 44.3 nM
GCRFGTCTVQRLAHQIYQFTDKDKDNVAPRTNVGPNG[Hyp]-NH2 (disulfide 2-7 (inferred); ends not checked) [SEQ ID NO: 90] | 58.5 nM
RCNASTCTVNRLADQITQFSNKDKAQVSPPTEVGPNS[Hyp]-NH2 (disulfide 2-7 (inferred); ends not checked) [SEQ ID NO: 9] | > 5000 nM
{C20 diacid-γGlu}-KCNTATCTVQRLAHQIYQFADKDKDNVAPPTNVGSNG[Hyp]-NH2 (disulfide 2-7 (inferred); not fully specified; ends not checked) [SEQ ID NO: 83] | 815 nM
GCRFGTCTVQRLAHQIYQFTDKDKDNVAPRTNIGPNG[Hyp]-NH2 (disulfide 2-7 (inferred); ends not checked) [SEQ ID NO: 81] | 138 nM
{C20 diacid-γGlu}-KCNTATCTVQRLAHQIYQFTDKNKDNVAPPTNVGSNG[Hyp]-NH2 (disulfide 2-7 (inferred); not fully specified; ends not checked) [SEQ ID NO: 91] | 840 nM
KCNTATCATQRLANFLVHSSNNFGAIAPSTKVGSNGY [SEQ ID NO: 93] | > 5000 nM
GCRTGTCTVQRLAHQIYQFTDKDKDNVAPRTNVGPNGY [SEQ ID NO: 84] | 2980 nM
GCRFGTCTVQRLAHQIYQFTDKDKDNVAPRTNVSPNGY [SEQ ID NO: 98] | 66.9 nM
KCNTSTCTVARLADQITQFSNKDKAQVSPPTEVGPNS[Hyp]-NH2 (disulfide 2-7 (inferred); ends not checked) [SEQ ID NO: 8] | > 5000 nM
KCNTATCTVQRLAEQIYQFK([AEEA-AEEA-γGlu-C20 diacid])DKDKDNVAPPTNVGSNG[Hyp]-NH2 (disulfide 2-7 (inferred); not fully specified; ends not checked) [SEQ ID NO: 89] | > 5000 nM
{C20 diacid-γGlu}-KCNTATCTVQRLAHQIAQFSDKDKDNVAPPTNVGSNG[Hyp]-NH2 (disulfide 2-7 (inferred); not fully specified; ends not checked) [SEQ ID NO: 79] | > 5000 nM
{C20 diacid-γGlu}-KCNTATCTVQRLAHQIAQFYDKDKDNVAPPTNVGSNG[Hyp]-NH2 (disulfide 2-7 (inferred); not fully specified; ends not checked) [SEQ ID NO: 94] | > 5000 nM
{C20 diacid-γGlu}-KCNTATCTVQRLAHQIYQFTDKDKDNVAPPTNVGSNG[Hyp]-NH2 (disulfide 2-7 (inferred); not fully specified; ends not checked) [SEQ ID NO: 77] | > 5000 nM
{C20 diacid-γGlu}-KCNTATCTVQRLAHQIVQFTDKDKDNVAPPTNVGSNG[Hyp]-NH2 (disulfide 2-7 (inferred); not fully specified; ends not checked) [SEQ ID NO: 85] | > 5000 nM
{C20 diacid-γGlu}-KCNTATCTVQRLAEQIYQFTDKDKDNVAPPTNVGSNT[Hyp]-NH2 (disulfide 2-7 (inferred); not fully specified; ends not checked) [SEQ ID NO: 96] | > 5000 nM
